According to IntAct's records for PubMed 21441902:

B1: ATP-dependent RNA helicase DBP5 (Saccharomyces cerevisiae), P20449 (parent)
chain: MSDTKRDPADLLASLKIDNEKEDTSEVSTKETVKSQPEKTADSIKPAEKLVPKVEEKKTKQEDSNLISSEYEVKVKLADIQADPNSPLYSAKSFDELGLAPELLKGIYAMKFQKPSKIQERALPLLLHNPPRNMIAQSQSGTGKTAAFSLTMLTRVNPEDASPQAICLAPSRELARQTLEVVQEMGKFTKITSQLIVPDSFEKNKQINAQVIVGTPGTVLDLMRRKLMQLQKIKIFVLDEADNMLDQQGLGDQCIRVKRFLPKDTQLVLFSATFADAVRQYAKKIVPNANTLELQTNEVNVDAIKQLYMDCKNEADKFDVLTELYGLMTIGSSIIFVATKKTANVLYGKLKSEGHEVSILHGDLQTQERDRLIDDFREGRSKVLITTNVLARGIDIPTVSMVVNYDLPTLANGQADPATYIHRIGRTGRFGRKGVAISFVHDKNSFNILSAIQKYFGDIEMTRVPTDDWDEVEKIVKKVLKD
partner: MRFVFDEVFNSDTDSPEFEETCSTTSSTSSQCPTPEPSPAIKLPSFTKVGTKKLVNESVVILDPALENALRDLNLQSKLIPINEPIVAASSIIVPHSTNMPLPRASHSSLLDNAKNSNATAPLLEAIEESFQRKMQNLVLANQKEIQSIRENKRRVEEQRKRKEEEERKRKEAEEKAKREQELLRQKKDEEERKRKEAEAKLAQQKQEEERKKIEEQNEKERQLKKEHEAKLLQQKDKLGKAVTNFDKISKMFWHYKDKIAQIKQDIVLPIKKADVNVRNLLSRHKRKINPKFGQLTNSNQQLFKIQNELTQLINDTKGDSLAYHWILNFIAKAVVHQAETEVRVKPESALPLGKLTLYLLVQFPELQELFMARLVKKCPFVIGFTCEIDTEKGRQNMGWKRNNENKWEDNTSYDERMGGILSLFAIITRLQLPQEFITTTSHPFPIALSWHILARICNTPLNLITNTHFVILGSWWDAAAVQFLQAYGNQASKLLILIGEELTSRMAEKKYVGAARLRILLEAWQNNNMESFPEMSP
B2: mRNA export factor GLE1 (Saccharomyces cerevisiae), Q12315 (parent)
chain: B1 partner
partner: B1 chain

Variants of: B1
Details: with gle1_yeast GLE1, Q12315

Variant | effect of a mutation on the interaction
MSDTKRDPADLLASLKIDNEKEDTSEVSTKETVKSQPEKTADSIKPAEKLVPKVEEKKTKQEDSNLISSEYEVKVKLADIQADPNSPLYSAKSFDELGLAPELLKGIYAMKFQKPSKIQERALPLLLHNPPRNMIAQSQSGTGKTAAFSLTMLTRVNPEDASPQAICLAPSRELARQTLEVVQEMGKFTKITSQLIVPDSFEKNKQINAQVIVGTPGTVLDLMRRKLMQLQKIKIFVLDEADNMLDQQGLGDQCIRVKRFLPKDTQLVLFSATFADAVRQYAKKIVPNANTLELQTNEVNVDAIKQLYMDCKNEADKFDVLTELYGVMTIGSSIIFVATKKTANVLYGKLKSEGHEVSILHGDLQTQERDRLIDDFREGRSKVLITTNVLARGIDIPTVSMVVNYDLPTLANGQADPATYIHRIGRTGRFGRKGVAISFVHDKNSFNILSAIQKYFGDIEMTRVPTDDWDEVEKIVAKVLAD [L327V;K477A;K481A] | disrupting interaction

Variants of: B2
Details: with dbp5_yeast DBP5, P20449

Variant | effect of a mutation on the interaction
MRFVFDEVFNSDTDSPEFEETCSTTSSTSSQCPTPEPSPAIKLPSFTKVGTKKLVNESVVILDPALENALRDLNLQSKLIPINEPIVAASSIIVPHSTNMPLPRASHSSLLDNAKNSNATAPLLEAIEESFQRKMQNLVLANQKEIQSIRENKRRVEEQRKRKEEEERKRKEAEEKAKREQELLRQKKDEEERKRKEAEAKLAQQKQEEERKKIEEQNEKERQLKKEHEAKLLQQKDKLGKAVTNFDKISKMFWHYKDKIAQIKQDIVLPIKKADVNVRNLLSRHKRKINPKFGQLTNSNQQLFKIQNELTQLINDTKGDSLAYHWILNFIAKAVVHQAETEVRVKPESALPLGKLTLYLLVQFPELQELFMARLVKKCPFVIGFTCEIDTEKGRQNMGWKRNNENKWEDNTSYDERMGGILSLFAIITRLQLPQEFITTTSHPFPIALSWHILARICNTPLNLITNTHFVILGSWWDAAAVQFLQAYGNQASKLLILIGEELTSRMAEKKYDGADRLRDLLEAWQNNNMESFPEMSP [V513D;A516D;I520D] | disrupting interaction
